Measured values taken from publication PMC9081212.

Target: wild-type human γS-crystallin (human) (UniProt P22914)
Assay: SEC-MALS

In the case of “wild-type human γS-crystallin (from UniProt P22914 1-178) (natural protein)”, the stoichiometry N is reported as 2.
